Results on four substances are retold here after paper PMC11333492.

The target of assay [1] is B/Memphis/13/2003 FluPol PA-NY360-361AA (PB2, PA mutant, PB1-luc2). To be noted: parent: est. 100; read off a plot.
Assay [2] addresses B/Memphis/13/2003 FluPol PA-NENF332-335AAAA (PB2, PA mutant, PB1-luc2). The note with it: parent: est. 100; read off a plot.
The target in assay [3] is FluPolB (influenza B/Memphis/13/2003 polymerase heterotrimer) (influenza B/Memphis/13/2003) (UniProt Q5V8Z9). Briefly: mass photometry.
The target in assay [4] is B/Memphis/13/2003 FluPol PA-NE332-333AA (PB2, PA mutant, PB1-luc2). To be noted: parent: est. 100; read off a plot.

On to “B/Memphis/13/2003 FluPol wild type (PB2, PA, PB1-luc1) for the split luciferase assays (from UniProt Q5V8Z9;Q5V8Y6;Q5V8X3) PA:N360A; PA:Y361A”, for which, in assay [1], the percent of parent was 6 % FluPol-WT. With “B/Memphis/13/2003 FluPol wild type (PB2, PA, PB1-luc1) for the split luciferase assays (from UniProt Q5V8Z9;Q5V8Y6;Q5V8X3) PA:N332A; PA:E333A; PA:N334A; PA:F335A”, in assay [2], the percent of parent is 9 % FluPol-WT. “FluPolB (influenza B/Memphis/13/2003 polymerase heterotrimer) (from UniProt Q5V8Z9;Q5V8Y6;Q5V8X3) (complex)” had a percent dimers in assay [3] of 14%. For “B/Memphis/13/2003 FluPol wild type (PB2, PA, PB1-luc1) for the split luciferase assays (from UniProt Q5V8Z9;Q5V8Y6;Q5V8X3) PA:N332A; PA:E333A”, the percent of parent in assay [4] was found to be 33 % FluPol-WT.
